Here are results for 3 molecules from publication PMC6175878, “ROS-induced R loops trigger a transcription-coupled but BRCA1/2-independent homologous recombination pathway through CSB” (Nature Communications, 2018).

In one data set the target is 6H-Flag-CSB (human) (UniProt Q03468). The experiment in a line: SEC; Superdex 200 in Buffer B (25 mM Tris-Cl pH 7.5, 10% glycerol, 0.5 mM EDTA, 500 mM KCl, 0.01% IGEPAL, 1 mM DTT), 4 °C; last step of the purification.
Data set [1] addresses T1, hRAD52 with a C-terminal 6x-his tag (human, UniProt P43351 1-418).
T1 construct: RAD52, human (hRAD52), from pET28b-RAD52; also called His-RAD52; RAD52 protein; source: E. coli Rosetta, purified (Affiblue, Ni-NTA); not shown: His6, C-terminal, kept
T1 sequence (looked up): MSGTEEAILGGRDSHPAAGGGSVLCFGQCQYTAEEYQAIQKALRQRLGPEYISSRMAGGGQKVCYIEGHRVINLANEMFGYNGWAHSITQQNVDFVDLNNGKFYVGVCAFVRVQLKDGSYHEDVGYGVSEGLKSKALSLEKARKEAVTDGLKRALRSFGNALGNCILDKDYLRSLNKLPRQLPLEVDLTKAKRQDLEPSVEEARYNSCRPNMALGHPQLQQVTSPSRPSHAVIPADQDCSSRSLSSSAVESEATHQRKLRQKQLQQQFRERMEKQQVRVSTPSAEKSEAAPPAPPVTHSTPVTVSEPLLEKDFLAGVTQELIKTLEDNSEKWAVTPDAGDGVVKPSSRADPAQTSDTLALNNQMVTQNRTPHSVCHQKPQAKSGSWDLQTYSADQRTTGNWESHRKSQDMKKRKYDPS
Put plainly: cross-linking; 1 mM DSS, 100 mM Hepes pH 7.5, 50 mM KCl, 25 °C, 1 h; cross-linked species (>250 kDa) cut from SDS-PAGE, trypsin, mass spectrometry (pLink). As to conditions: both partners purified.

Another data set addresses T2, RAD52 (human, UniProt P43351 1-418).
T2 sequence: T1 sequence (looked up)
Put plainly: EMSA; 1 mM Mg2+; lower affinity than CSB-FL; EMSA: 25 mM Tris-HCl pH 7.5, 1 mM MgCl2, 1 mM DTT, 50 ug/mL BSA, 50 mM NaCl, 15 min 37 C, 6% PAGE-TBE at 4 C; pull-down: 20 mM Tris-HCl pH 7.5, 50 mM NaCl, 2 mM MgCl2, 0.1% Tween-20, 30% glycerol, RNase 0.2 U/uL (so in the source). As to conditions: protein: recombinant; tags: C-terminal 6xHis; label: 5' maleimide-IR800 on oligo 1 (RNA); blunt.

Data set [2] addresses 6H-Flag-CSB full length (CSB-FL) (human, UniProt Q03468 1-1493). Put plainly: EMSA; 1 mM Mg2+; much higher affinity than RAD52; EMSA: 25 mM Tris-HCl pH 7.5, 1 mM MgCl2, 1 mM DTT, 50 ug/mL BSA, 50 mM NaCl, 15 min 37 C, 6% PAGE-TBE at 4 C; pull-down: 20 mM Tris-HCl pH 7.5, 50 mM NaCl, 2 mM MgCl2, 0.1% Tween-20, 30% glycerol, RNase 0.2 U/uL (so in the source). As to conditions: protein: recombinant; chain copies: 2; label: 5' maleimide-IR800 on oligo 1 (RNA); blunt.

The next data set addresses GST-CSB-AD (human, UniProt Q03468 337-509). Put plainly: EMSA; 1 mM Mg2+; EMSA: 25 mM Tris-HCl pH 7.5, 1 mM MgCl2, 1 mM DTT, 50 ug/mL BSA, 50 mM NaCl, 15 min 37 C, 6% PAGE-TBE at 4 C; pull-down: 20 mM Tris-HCl pH 7.5, 50 mM NaCl, 2 mM MgCl2, 0.1% Tween-20, 30% glycerol, RNase 0.2 U/uL (so in the source). As to conditions: protein: recombinant; tags: GST (N-term, pGEX-4T-3); label: 5' maleimide-IR800 on oligo 1 (RNA); blunt.

Another data set deals with GST-CSB-CTD (human, UniProt Q03468 1200-1493). The data set is described as above. As to conditions: protein: recombinant; tags: GST (N-term, pGEX-4T); label: 5' maleimide-IR800 on oligo 1 (RNA); blunt.
Chain of GST-CSB-CTD (Q03468 1200-1493): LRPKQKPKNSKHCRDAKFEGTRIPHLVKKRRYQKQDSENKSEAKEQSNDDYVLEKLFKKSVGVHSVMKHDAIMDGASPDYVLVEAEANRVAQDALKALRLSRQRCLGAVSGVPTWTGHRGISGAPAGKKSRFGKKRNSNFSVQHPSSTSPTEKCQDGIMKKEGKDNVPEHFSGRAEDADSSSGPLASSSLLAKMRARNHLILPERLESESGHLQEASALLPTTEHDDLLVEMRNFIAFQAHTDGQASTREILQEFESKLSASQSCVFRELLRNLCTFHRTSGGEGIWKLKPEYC

Chain of 6H-Flag-CSB full length (CSB-FL) (Q03468 whole entry): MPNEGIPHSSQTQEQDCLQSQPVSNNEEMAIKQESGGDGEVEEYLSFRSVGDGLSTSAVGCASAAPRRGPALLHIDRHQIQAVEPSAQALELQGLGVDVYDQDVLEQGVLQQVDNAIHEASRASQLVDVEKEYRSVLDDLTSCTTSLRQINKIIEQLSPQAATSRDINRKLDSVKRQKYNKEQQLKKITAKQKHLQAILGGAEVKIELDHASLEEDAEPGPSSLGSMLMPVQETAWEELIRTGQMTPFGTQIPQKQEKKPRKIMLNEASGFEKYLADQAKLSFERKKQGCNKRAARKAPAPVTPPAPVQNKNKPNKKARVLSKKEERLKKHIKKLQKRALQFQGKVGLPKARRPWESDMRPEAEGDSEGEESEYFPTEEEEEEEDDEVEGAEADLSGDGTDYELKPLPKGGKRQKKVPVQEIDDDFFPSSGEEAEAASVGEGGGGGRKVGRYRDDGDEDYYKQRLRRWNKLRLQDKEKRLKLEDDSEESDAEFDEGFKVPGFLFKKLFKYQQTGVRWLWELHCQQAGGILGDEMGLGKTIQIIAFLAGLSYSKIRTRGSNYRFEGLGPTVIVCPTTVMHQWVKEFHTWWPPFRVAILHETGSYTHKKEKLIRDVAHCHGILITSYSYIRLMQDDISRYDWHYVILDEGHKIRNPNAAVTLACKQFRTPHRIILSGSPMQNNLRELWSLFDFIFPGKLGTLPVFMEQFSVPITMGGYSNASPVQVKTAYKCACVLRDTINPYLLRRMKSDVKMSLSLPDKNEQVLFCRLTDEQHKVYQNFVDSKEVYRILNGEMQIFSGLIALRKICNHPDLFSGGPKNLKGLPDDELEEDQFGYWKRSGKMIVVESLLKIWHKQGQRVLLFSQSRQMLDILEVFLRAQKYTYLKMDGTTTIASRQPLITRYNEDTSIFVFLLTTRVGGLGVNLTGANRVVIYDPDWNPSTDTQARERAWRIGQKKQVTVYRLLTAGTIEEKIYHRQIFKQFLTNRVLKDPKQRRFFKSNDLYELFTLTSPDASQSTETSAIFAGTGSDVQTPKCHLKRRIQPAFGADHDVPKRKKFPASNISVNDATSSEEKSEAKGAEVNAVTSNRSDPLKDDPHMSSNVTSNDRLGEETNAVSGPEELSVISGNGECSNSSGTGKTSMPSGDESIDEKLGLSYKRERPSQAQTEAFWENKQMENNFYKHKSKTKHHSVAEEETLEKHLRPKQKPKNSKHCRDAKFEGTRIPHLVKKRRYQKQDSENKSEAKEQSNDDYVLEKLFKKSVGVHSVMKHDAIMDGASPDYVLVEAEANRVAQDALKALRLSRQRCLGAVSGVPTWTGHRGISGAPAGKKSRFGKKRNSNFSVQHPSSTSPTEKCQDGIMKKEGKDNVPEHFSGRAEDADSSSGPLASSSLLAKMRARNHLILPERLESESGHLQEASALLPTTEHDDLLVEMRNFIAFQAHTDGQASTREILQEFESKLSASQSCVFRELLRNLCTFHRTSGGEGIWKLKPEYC

On to “6H-Flag-CSB (from UniProt Q03468 1-1493) (natural protein; other documents disagree on this pair)”, for which the stoichiometry N with 6H-Flag-CSB (human) amounted to 2.

B1: GST-CSB-AD (residues 337-509) (domain or fragment, human, UniProt Q03468 337-509, looked up)
chain: KRALQFQGKVGLPKARRPWESDMRPEAEGDSEGEESEYFPTEEEEEEEDDEVEGAEADLSGDGTDYELKPLPKGGKRQKKVPVQEIDDDFFPSSGEEAEAASVGEGGGGGRKVGRYRDDGDEDYYKQRLRRWNKLRLQDKEKRLKLEDDSEESDAEFDEGFKVPGFLFKKLFK
notes: Cockayne Syndrome Protein B (CSB), human, acidic domain residues 337-509; Inserted into pGEX-4T-3 with XhoI and NotI; also called GST-tagged human CSB-AD; purified CSB-AD; source: E. coli Rosetta 2, purified (glutathione sepharose 4B)
As for B1, the binding result in data set [1] is listed as “binds”.

B2: DNA:RNA hybrid oligo 1/oligo 2 (DNA:RNA)
RNA: UUAAUUGGUGUGACUAAUCGAAGUUGAUACAUCGACGUUAUGGUGAUGAU
DNA: ATCATCACCATAACGTCGATGTATCAACTTCGATTAGTCACACCAATTAA
B2: the binding result in the data set with RAD52 is on record as “binds”; in data set [2], “binds”; with GST-CSB-AD it was “no binding”; with GST-CSB-CTD it was “binds”.
